{
  "source": "patent US20100239590A1",
  "biological_target": "human IL-17RC on HS68 foreskin fibroblast cells (human) (UniProt Q8NAC3)",
  "sequence (Q8NAC3 21-791)": "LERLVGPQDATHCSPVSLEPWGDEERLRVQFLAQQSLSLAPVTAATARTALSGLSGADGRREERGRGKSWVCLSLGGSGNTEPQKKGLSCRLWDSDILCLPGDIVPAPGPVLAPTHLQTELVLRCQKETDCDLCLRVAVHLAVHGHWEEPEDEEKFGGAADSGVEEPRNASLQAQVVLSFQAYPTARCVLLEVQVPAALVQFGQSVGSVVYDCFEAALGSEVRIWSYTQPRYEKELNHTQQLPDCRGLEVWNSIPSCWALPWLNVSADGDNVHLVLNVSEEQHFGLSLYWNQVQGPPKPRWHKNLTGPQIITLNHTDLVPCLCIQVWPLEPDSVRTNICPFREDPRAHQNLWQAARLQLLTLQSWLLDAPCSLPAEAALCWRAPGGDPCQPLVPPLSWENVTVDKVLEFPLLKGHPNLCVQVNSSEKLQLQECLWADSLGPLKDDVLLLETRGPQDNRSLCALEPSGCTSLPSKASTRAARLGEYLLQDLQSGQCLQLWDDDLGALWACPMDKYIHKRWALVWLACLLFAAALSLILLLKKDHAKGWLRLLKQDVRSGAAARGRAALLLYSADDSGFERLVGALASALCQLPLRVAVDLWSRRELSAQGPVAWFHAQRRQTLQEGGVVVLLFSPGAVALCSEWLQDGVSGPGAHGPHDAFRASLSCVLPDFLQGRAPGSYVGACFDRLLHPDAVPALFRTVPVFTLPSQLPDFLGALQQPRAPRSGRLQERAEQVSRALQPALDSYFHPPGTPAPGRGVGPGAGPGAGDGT",
  "assay": "cell-based or functional assay",
  "data": [
    {"substance": "human IL-17A (from UniProt Q16552 24-155) (ligand)", "values": [
      {"measurement": "IL-6 induction in HS68 cells, EC50", "value": "5 to 10", "unit": "ng/mL"}
    ]}
  ]
}
